In PMC5726920 one finds stoichiometry N data, which are given here for two molecules.

Assay [1] addresses T1, heart isozyme of murine fatty acid binding protein (mouse), P11404.
T1 chain: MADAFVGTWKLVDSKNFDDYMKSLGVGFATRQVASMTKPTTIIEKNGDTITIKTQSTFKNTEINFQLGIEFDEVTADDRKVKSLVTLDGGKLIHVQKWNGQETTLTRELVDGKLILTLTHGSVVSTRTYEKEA
Nature of the assay: native MS. As to conditions: remark: other sources report otherwise.

The target of assay [2] is T2, protein deglycase DJ-1, Q99497.
T2 chain: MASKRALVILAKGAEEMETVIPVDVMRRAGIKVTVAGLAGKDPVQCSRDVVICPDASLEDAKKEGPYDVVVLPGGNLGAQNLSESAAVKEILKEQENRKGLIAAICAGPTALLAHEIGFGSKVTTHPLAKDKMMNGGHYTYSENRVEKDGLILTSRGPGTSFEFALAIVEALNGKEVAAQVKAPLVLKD
The experiment in a line: native MS. As to conditions: remark: other sources report otherwise.

B1: heart isozyme of murine fatty acid binding protein, P11404 1-133 (natural protein)
chain: T1 chain
What is called stoichiometry N is a count of units in the complex or per binding partner. In assay [1], B1 gave a stoichiometry N of 2.

B2: protein deglycase DJ-1, Q99497 1-189 (enzyme)
chain: T2 chain
With B2, in assay [2], the stoichiometry N is 2.
